Data as given in publication PMC314469, “Protein Interaction Networks by Proteome Peptide Scanning” (PLoS Biology, 2004).

Molecular target: T1, Abp1 SH3 (ABP1_YEAST), P15891
T1 chain: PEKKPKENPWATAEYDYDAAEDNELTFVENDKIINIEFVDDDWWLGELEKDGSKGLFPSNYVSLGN
Assay: SPOT array

## KSGSSQPPSFIKP [YIR007W 614-626]
  normalised SPOT signal, Boehringer light units (BLU); mean over the file's lines of this peptide: 69.8

## LDDSPVTPGETRP [YGR086C 227-239]
  normalised SPOT signal, Boehringer light units (BLU); mean over the file's lines of this peptide: 64.5

## KSPSNIKLSIPARP [YJL095W 316-329]
  normalised SPOT signal, Boehringer light units (BLU); mean over the file's lines of this peptide: 107

## KSELPKSPYRQKP [YHR184W 123-135]
  normalised SPOT signal, Boehringer light units (BLU); mean over the file's lines of this peptide: 205

## KRSLEENPVNKRP [YAL011W 331-343]
  normalised SPOT signal, Boehringer light units (BLU); mean over the file's lines of this peptide: 33.4

## KTDAKLKPFIYRP [YGR084C 56-68]
  normalised SPOT signal, Boehringer light units (BLU); mean over the file's lines of this peptide: 2160

## LELTNPSPIQIKP [YDR285W 822-834]
  normalised SPOT signal, Boehringer light units (BLU); mean over the file's lines of this peptide: 82.9

## LEGSVSLPRFSKP [YOL021C 286-298]
  normalised SPOT signal, Boehringer light units (BLU); mean over the file's lines of this peptide: 76.1

## KSDKEISPKSQRP [YER025W 165-177]
  normalised SPOT signal, Boehringer light units (BLU); mean over the file's lines of this peptide: 75.6

## KSYRKAFPNMVKP [YML002W 638-650]
  normalised SPOT signal, Boehringer light units (BLU); mean over the file's lines of this peptide: 217

## LSGSIIGPKRVKP [YLR427W 248-260]
  normalised SPOT signal, Boehringer light units (BLU); mean over the file's lines of this peptide: 466

## KSLEDYRPPDEKP [YGR197C 50-62]
  normalised SPOT signal, Boehringer light units (BLU); mean over the file's lines of this peptide: 161

## LAKYAGLPTAEKP [YDL033C 211-223]
  normalised SPOT signal, Boehringer light units (BLU); mean over the file's lines of this peptide: 55.9

## LESNSMRGYQPFRP [YBR136W 2029-2042]
  normalised SPOT signal, Boehringer light units (BLU); mean over the file's lines of this peptide: 250

## LEVVDGSPYGYRP [YLL015W 4-16]
  normalised SPOT signal, Boehringer light units (BLU); mean over the file's lines of this peptide: 0

## LDDSPVTPGEARP [YPL004C 227-239]
  normalised SPOT signal, Boehringer light units (BLU); mean over the file's lines of this peptide: 57.3

## LDATEPPIDLPQKP [YJL219W 41-54]
  normalised SPOT signal, Boehringer light units (BLU); mean over the file's lines of this peptide: 125

## LDHAIKLSRNPDKP [YLL051C 566-579]
  normalised SPOT signal, Boehringer light units (BLU); mean over the file's lines of this peptide: 97.5

## KYREIIRNDLPPRP [YGR109W-B 563-576]
  normalised SPOT signal, Boehringer light units (BLU); mean over the file's lines of this peptide: 86

## KTREPLQPRPPVKP [YGR084C 83-96]
  normalised SPOT signal, Boehringer light units (BLU); mean over the file's lines of this peptide: 706

## LEEKKEQPKVEKP [YLR429W 427-439]
  normalised SPOT signal, Boehringer light units (BLU); mean over the file's lines of this peptide: 86.1

## KRYDYKKPTVNRP [YPL074W 344-356]
  normalised SPOT signal, Boehringer light units (BLU); mean over the file's lines of this peptide: 71.4

## LEKRGRVPLQARP [YNL284C 230-242]
  normalised SPOT signal, Boehringer light units (BLU); mean over the file's lines of this peptide: 1240

## LSGIQDNLLSPLKP [YOR365C 124-137]
  normalised SPOT signal, Boehringer light units (BLU); mean over the file's lines of this peptide: 110

## LEVPERIPEVLRP [YFL004W 802-814]
  normalised SPOT signal, Boehringer light units (BLU); mean over the file's lines of this peptide: 14.9

## KVKQYIEPESVKP [YBR236C 423-435]
  normalised SPOT signal, Boehringer light units (BLU); mean over the file's lines of this peptide: 100

## KVFLDTHKESPLRP [YKR003W 302-315]
  normalised SPOT signal, Boehringer light units (BLU); mean over the file's lines of this peptide: 73.1

## LDNILPLEWYPLRP [YHR204W 395-408]
  normalised SPOT signal, Boehringer light units (BLU); mean over the file's lines of this peptide: 84.7

## KTATTPPPVLRRP [YMR184W 66-78]
  normalised SPOT signal, Boehringer light units (BLU); mean over the file's lines of this peptide: 9110

## KVVASKIPVISKP [YHR077C 993-1005]
  normalised SPOT signal, Boehringer light units (BLU); mean over the file's lines of this peptide: 126

## LESLSMLPEIVRP [YLR085C 335-347]
  normalised SPOT signal, Boehringer light units (BLU); mean over the file's lines of this peptide: 118

## KSILHGLADEPRRP [YPR084W 202-215]
  normalised SPOT signal, Boehringer light units (BLU); mean over the file's lines of this peptide: 98.4

## LDVLKIKPLPYKP [YER093C 582-594]
  normalised SPOT signal, Boehringer light units (BLU); mean over the file's lines of this peptide: 2070

## LEKLGDISDIPVKP [YPL167C 291-304]
  normalised SPOT signal, Boehringer light units (BLU); mean over the file's lines of this peptide: 138

## KSRHFTYPEGVKP [YHR006W 264-276]
  normalised SPOT signal, Boehringer light units (BLU); mean over the file's lines of this peptide: 55.9

## LDLSNIKPIQLKP [YGR193C 231-243]
  normalised SPOT signal, Boehringer light units (BLU); mean over the file's lines of this peptide: 176

## KSDVPEDPIYSKP [YBR003W 113-125]
  normalised SPOT signal, Boehringer light units (BLU); mean over the file's lines of this peptide: 19.8

## KVHRHEPPVTSKP [YOL066C 148-160]
  normalised SPOT signal, Boehringer light units (BLU); mean over the file's lines of this peptide: 69.6

## KVMENWTPGAPKP [YGL202W 197-209]
  normalised SPOT signal, Boehringer light units (BLU); mean over the file's lines of this peptide: 106

## LEARTNFPLILRP [YLR428C 53-65]
  normalised SPOT signal, Boehringer light units (BLU); mean over the file's lines of this peptide: 84.3

## LEFVRGKQNIPRKP [YGR230W 120-133]
  normalised SPOT signal, Boehringer light units (BLU); mean over the file's lines of this peptide: 800

## LELAVPGTYFPGKP [YJR066W 2073-2086]
  normalised SPOT signal, Boehringer light units (BLU); mean over the file's lines of this peptide: 40

## LDATEAPIDLPQKP [YIL171W 41-54]
  normalised SPOT signal, Boehringer light units (BLU); mean over the file's lines of this peptide: 77.8

## LDEQPGFQILPFKP [YOR023C 257-270]
  normalised SPOT signal, Boehringer light units (BLU); mean over the file's lines of this peptide: 160

## KYIKEKGPSSIKP [YGL251C 1061-1073]
  normalised SPOT signal, Boehringer light units (BLU); mean over the file's lines of this peptide: 104

## LELVQPLPASKKP [YOL087C 650-662]
  normalised SPOT signal, Boehringer light units (BLU); mean over the file's lines of this peptide: 118

## KSNLLSVPEAYKP [YIL030C 763-775]
  normalised SPOT signal, Boehringer light units (BLU); mean over the file's lines of this peptide: 200

## KSQTIILPIYGRP [YGL207W 558-570]
  normalised SPOT signal, Boehringer light units (BLU); mean over the file's lines of this peptide: 84.4

## LAFFHNIPKKVRP [YDL058W 339-351]
  normalised SPOT signal, Boehringer light units (BLU); mean over the file's lines of this peptide: 221

## LDANEPPIDLPQKP [YOL156W 41-54]
  normalised SPOT signal, Boehringer light units (BLU); mean over the file's lines of this peptide: 72.3

## KSRLIVNPFIPRRP [YDR409W 855-868]
  normalised SPOT signal, Boehringer light units (BLU); mean over the file's lines of this peptide: 360

## KTKAKKEKPKPPKP [YMR044W 279-292]
  normalised SPOT signal, Boehringer light units (BLU); mean over the file's lines of this peptide: 119

## LEVVKSLYDRPLKP [YGR232W 85-98]
  normalised SPOT signal, Boehringer light units (BLU); mean over the file's lines of this peptide: 63.6

## LDRLKKNPYAHKP [YPL029W 708-720]
  normalised SPOT signal, Boehringer light units (BLU); mean over the file's lines of this peptide: 577

## KTGNPFVRINPNRP [YBR136W 497-510]
  normalised SPOT signal, Boehringer light units (BLU); mean over the file's lines of this peptide: 371

## LEGNELYPLSYKP [YGL131C 1252-1264]
  normalised SPOT signal, Boehringer light units (BLU); mean over the file's lines of this peptide: 65.6

## LAPMMQKGNLPKRP [YBR056W 390-403]
  normalised SPOT signal, Boehringer light units (BLU); mean over the file's lines of this peptide: 3410

## LSGSDYLQSGPRKP [YMR168C 296-309]
  normalised SPOT signal, Boehringer light units (BLU); mean over the file's lines of this peptide: 75.2

## LESSPKKHVSPSRP [YAL028W 269-282]
  normalised SPOT signal, Boehringer light units (BLU); mean over the file's lines of this peptide: 184
